Reference: US20240279304A1, “DSG2 COMPOSITIONS AND METHODS” (Arvada Therapeutics, Inc., priority 2021, published 2024)

Key:
anti-DSG2 antibody [1] = assay: electrochemical immunoassay; fusion polypeptide at 5 mg/mL (so in the source), antibody at 500 ng/mL
[2] = Dynamic light scattering (DLS) of DSG2 fusion polypeptides; assay type: physicochemical; conditions: average polymer distribution index
Description: 6 candidates were compared to the reference sample.

anti-DSG2 antibody [3] = assay: anti-DSG2 antibody meso scale discovery (MSD) assay, blocking of anti-DSG2 antibody; assay type: binding; conditions: for % inhibition: fraction C (table title)
Procedure: (§1) The DSG2 fusion polypeptides were tested for the ability to block anti-DSG2 antibody by an anti-DSG2 antibody meso scale discovery (MSD) assay. […] The DSG2 fusion polypeptides were subjected to size exclusion chromatography and different elution fractions were examined. […] As shown in Table 7 and FIG. 1B, FIG. 1C, and FIG. 1D, enriching for fraction C improved the ability of the DSG2 fusion polypeptides to block ARVC patient serum.

anti-DSG2 antibody [4] = assay: anti-DSG2 antibody MSD assay; inhibition by the fusion polypeptide (fraction C per table title); antibody at 200 ng/mL
anti-DSG2 antibody [5] = assay: anti-DSG2 antibody MSD assay; inhibition by the fusion polypeptide (fraction C per table title); antibody at 1000 ng/mL
[6] = system: ARVC serum (anti-DSG2 antibodies in serum obtained from ARVC patients); assay: anti-DSG2 antibody MSD assay, blocking of ARVC patient serum; assay type: binding, human; parameters: % inhibition: concentration or dose not given beside the values; conditions: for effect of enriching for fraction C on ability to block ARVC patient serum (in words): fraction C vs whole preparation, FIG. 1B-1D; for % inhibition: fraction C (table title)
Procedure: as §1
ARVC diagnosis is based on complex tool known as Task Force Criteria, which can lead to varying levels of conviction about ARVC diagnosis. The utility of DSG2 antibodies as an indicator of ARVC disease state and severity was explored. Approximately 50 cc serum was collected from diagnosed ARVC patients. A total of 10 ARVC patients and 5 healthy controls were used for the analysis. ARVC serum samples were separated into more robust diagnosis and less robust diagnosis, based on available data in the patient medical records and anti-DSG2 antibody levels were compared using an anti-DSG2 antibody meso scale discovery (MSD)-based assay.

[7] = sample: Anti-DSG2 antibody (200 ng/mL) control
[8] = sample: Anti-DSG2 antibody (1000 ng/mL) control

DSG2-GGGGS-(IgG4)Fc (DSG2FP#7) (Fc fusion)
% inhibition (anti-DSG2 antibody [1]): > 80%

DSG2FP#6: DSG2 extracellular domain (50-609 of SEQ ID NO: 1); IgG4 Fc 99-327 (S228P, L235E, P329G) SEQ ID NO: 32
PDI [2]: 0.32
ability to bind to and block anti-DSG2 antibody (in words) (anti-DSG2 antibody [3]): able to bind to and block anti-DSG2 antibodies

DSG2FP#5: IgG1 Fc 104-330 (L234A, L235A, P329G; SEQ ID NO: 31); DSG2 extracellular domain (50-609 of SEQ ID NO: 1)
PDI [2]: 0.31
ability to bind to and block anti-DSG2 antibody (in words) (anti-DSG2 antibody [3]): able to bind to and block anti-DSG2 antibodies

DSG2FP#7: DSG2 extracellular domain (50-609 of SEQ ID NO: 1); GGGGS peptide linker; IgG4 Fc domain
PDI [2]: 0.30
ability to bind to and block anti-DSG2 antibody (in words) (anti-DSG2 antibody [3]): able to bind to and block anti-DSG2 antibodies

DSG2-(IgG1)Fc (DSG2FP#2) (Fc fusion)
% inhibition (anti-DSG2 antibody [4]): 54.5%
% inhibition (anti-DSG2 antibody [5]): 81.6%

DSG2-GGGGS-(IgG1)Fc (DSG2FP#3) (Fc fusion)
% inhibition (anti-DSG2 antibody [4]): 61.2%
% inhibition (anti-DSG2 antibody [5]): 85.5%

DSG2-EAAAK-(IgG1)Fc (DSG2FP#4) (Fc fusion)
% inhibition (anti-DSG2 antibody [4]): 61.2%
% inhibition (anti-DSG2 antibody [5]): 85.5%

DSG2-(IgG4)Fc (DSG2FP#6) (Fc fusion)
% inhibition (anti-DSG2 antibody [1]): > 80%

B1: DSG2FP#2: DSG2 extracellular domain (50-609 of SEQ ID NO: 1); IgG1 Fc 104-330 (L234A, L235A, P329G) SEQ ID NO: 31 (protein)
chain: AWITAPVALREGEDLSKKNPIAKIHSDLAEERGLKITYKYTGKGITEPPFGIFVFNKDTGELNVTSILDREETPFFLLTGYALDARGNNVEKPLELRIKVLDINDNEPVFTQDVFVGSVEELSAAHTLVMKINATDADEPNTLNSKISYRIVSLEPAYPPVFYLNKDTGEIYTTSVTLDREEHSSYTLTVEARDGNGEVTDKPVKQAQVQIRILDVNDNIPVVENKVLEGMVEENQVNVEVTRIKVFDADEIGSDNWLANFTFASGNEGGYFHIETDAQTNEGIVTLIKEVDYEEMKNLDFSVIVANKAAFHKSIRSKYKPTPIPIKVKVKNVKEGIHFKSSVISIYVSESMDRSSKGQIIGNFQAFDEDTGLPAHARYVKLEDRDNWISVDSVTSEIKLAKLPDFESRYVQNGTYTVKIVAISEDYPRKTITGTVLINVEDINDNCPTLIEPVQTICHDAEYVNVTAEDLDGHPNSGPFSFSVIDKPPGMAEKWKIARQESTSVLLQQSEKKLGRSEIQFLISDNQGFSCPEKQVLTLTVCECLHGSGCREAQHDSYVGDKTHTCPPCPAPEAAGGPSVFLFPPKPKDTLMISRTPEVTCVVVDVSHEDPEVKFNWYVDGVEVHNAKTKPREEQYNSTYRVVSVLTVLHQDWLNGKEYKCKVSNKALGAPIEKTISKAKGQPREPQVYTLPPSRDELTKNQVSLTCLVKGFYPSDIAVEWESNGQPENNYKTTPPVLDSDGSFFLYSKLTVDKSRWQQGNVFSCSVMHEALHNHYTQKSLSLSPGK
PDI [2]: 0.32
effect of enriching for fraction C on ability to block ARVC patient serum (in words) [6]: more pronounced
% inhibition ([6]; sample: ARVC serum 1): 3.0%
% inhibition ([6]; sample: ARVC serum 2): 33.5%
% inhibition ([6]; sample: ARVC serum 3): 26.0%
% inhibition ([6]; sample: ARVC serum 4): 51.1%
% inhibition ([6]; sample: ARVC serum 5): 41.8%
ability to bind to and block anti-DSG2 antibody (in words) (anti-DSG2 antibody [3]): able to bind to and block anti-DSG2 antibodies
% inhibition (anti-DSG2 antibody [3]; [7]): 54.5%
% inhibition (anti-DSG2 antibody [3]; [8]): 81.6%
% inhibition (anti-DSG2 antibody [3]; sample: no antibody control): −19.1%

B2: DSG2FP#3: DSG2 extracellular domain (50-609); linker GGGGS; IgG1 Fc 104-330 (L234A, L235A, P329G) SEQ ID NO: 31 (protein)
chain: AWITAPVALREGEDLSKKNPIAKIHSDLAEERGLKITYKYTGKGITEPPFGIFVFNKDTGELNVTSILDREETPFFLLTGYALDARGNNVEKPLELRIKVLDINDNEPVFTQDVFVGSVEELSAAHTLVMKINATDADEPNTLNSKISYRIVSLEPAYPPVFYLNKDTGEIYTTSVTLDREEHSSYTLTVEARDGNGEVTDKPVKQAQVQIRILDVNDNIPVVENKVLEGMVEENQVNVEVTRIKVFDADEIGSDNWLANFTFASGNEGGYFHIETDAQTNEGIVTLIKEVDYEEMKNLDFSVIVANKAAFHKSIRSKYKPTPIPIKVKVKNVKEGIHFKSSVISIYVSESMDRSSKGQIIGNFQAFDEDTGLPAHARYVKLEDRDNWISVDSVTSEIKLAKLPDFESRYVQNGTYTVKIVAISEDYPRKTITGTVLINVEDINDNCPTLIEPVQTICHDAEYVNVTAEDLDGHPNSGPFSFSVIDKPPGMAEKWKIARQESTSVLLQQSEKKLGRSEIQFLISDNQGFSCPEKQVLTLTVCECLHGSGCREAQHDSYVGGGGGGSDKTHTCPPCPAPEAAGGPSVFLFPPKPKDTLMISRTPEVTCVVVDVSHEDPEVKFNWYVDGVEVHNAKTKPREEQYNSTYRVVSVLTVLHQDWLNGKEYKCKVSNKALGAPIEKTISKAKGQPREPQVYTLPPSRDELTKNQVSLTCLVKGFYPSDIAVEWESNGQPENNYKTTPPVLDSDGSFFLYSKLTVDKSRWQQGNVFSCSVMHEALHNHYTQKSLSLSPGK
PDI [2]: 0.30
effect of enriching for fraction C on ability to block ARVC patient serum (in words) [6]: more pronounced
% inhibition ([6]; sample: ARVC serum 1): 9.2%
% inhibition ([6]; sample: ARVC serum 2): 27.6%
% inhibition ([6]; sample: ARVC serum 3): 15.5%
% inhibition ([6]; sample: ARVC serum 4): −5.6%
% inhibition ([6]; sample: ARVC serum 5): 20.6%
ability to bind to and block anti-DSG2 antibody (in words) (anti-DSG2 antibody [3]): able to bind to and block anti-DSG2 antibodies
% inhibition (anti-DSG2 antibody [3]; [7]): 61.2%
% inhibition (anti-DSG2 antibody [3]; [8]): 85.5%
% inhibition (anti-DSG2 antibody [3]; sample: no antibody control): 0.7%

B3: DSG2FP#4: DSG2 extracellular domain (50-609); linker EAAAK; IgG1 Fc 104-330 (L234A, L235A, P329G) SEQ ID NO: 31 (protein)
chain: AWITAPVALREGEDLSKKNPIAKIHSDLAEERGLKITYKYTGKGITEPPFGIFVFNKDTGELNVTSILDREETPFFLLTGYALDARGNNVEKPLELRIKVLDINDNEPVFTQDVFVGSVEELSAAHTLVMKINATDADEPNTLNSKISYRIVSLEPAYPPVFYLNKDTGEIYTTSVTLDREEHSSYTLTVEARDGNGEVTDKPVKQAQVQIRILDVNDNIPVVENKVLEGMVEENQVNVEVTRIKVFDADEIGSDNWLANFTFASGNEGGYFHIETDAQTNEGIVTLIKEVDYEEMKNLDFSVIVANKAAFHKSIRSKYKPTPIPIKVKVKNVKEGIHFKSSVISIYVSESMDRSSKGQIIGNFQAFDEDTGLPAHARYVKLEDRDNWISVDSVTSEIKLAKLPDFESRYVQNGTYTVKIVAISEDYPRKTITGTVLINVEDINDNCPTLIEPVQTICHDAEYVNVTAEDLDGHPNSGPFSFSVIDKPPGMAEKWKIARQESTSVLLQQSEKKLGRSEIQFLISDNQGFSCPEKQVLTLTVCECLHGSGCREAQHDSYVGEAAAKDKTHTCPPCPAPEAAGGPSVFLFPPKPKDTLMISRTPEVTCVVVDVSHEDPEVKFNWYVDGVEVHNAKTKPREEQYNSTYRVVSVLTVLHQDWLNGKEYKCKVSNKALGAPIEKTISKAKGQPREPQVYTLPPSRDELTKNQVSLTCLVKGFYPSDIAVEWESNGQPENNYKTTPPVLDSDGSFFLYSKLTVDKSRWQQGNVFSCSVMHEALHNHYTQKSLSLSPGK
PDI [2]: 0.32
% inhibition ([6]; sample: ARVC serum 1): 6.0%
% inhibition ([6]; sample: ARVC serum 2): 9.2%
% inhibition ([6]; sample: ARVC serum 3): −8.0%
% inhibition ([6]; sample: ARVC serum 4): 0.8%
% inhibition ([6]; sample: ARVC serum 5): 2.0%
ability to bind to and block anti-DSG2 antibody (in words) (anti-DSG2 antibody [3]): able to bind to and block anti-DSG2 antibodies
% inhibition (anti-DSG2 antibody [3]; [7]): 61.2%
% inhibition (anti-DSG2 antibody [3]; [8]): 85.5%
% inhibition (anti-DSG2 antibody [3]; sample: no antibody control): 0.7%
